The labels stand for the following.
B1: LINE1-full (parent)
chain: UACGUAGGUGGUUUUCCCCUGAUAGUGCUAAGGGGGCCUGGAAGUUUGGACUGGGCAGAGCUCAACACAGCGUGGCAAAGUGGCUGUGGCUAGACUGCCUCUCUGGAUUCCUCGUCACUCAGCAGGGCAUCUCUGAGAGAAAUGCC

The values below come from the RNAGym collection of RNA variant scans (doi:10.7554/elife.90254).

This data set covers variants of B1. Kind of data set: self-cleavage, relative activity (ratio to wild type); higher = more cleavage; in vitro, sequencing; the parent is a self-cleaving ribozyme.
In the case of U5A A77G, the self-cleavage amounted to 2.07.

Regarding U5A U132A, the self-cleavage worked out at 1.38. The same measure for A6G U115A: 0.64; for A6G U115G: 2.04. As for A6G A22G, the figure is 1.19; as for U5C G25A, 1.34; as for U5C A141U, 0.73.

As for G7A A79G, the self-cleavage was determined as 0.61. As for A6G C101A, the figure is 0.56; as for U5C U9C, 1.28. As for U5C U9A, the figure is 0.74; as for G4A U96C, 0.15.

In the case of A6G U143C, the self-cleavage came out at 0.57. As for U5A C38G, the figure is 0.71; as for G4U A77G, 2.68.

As to A6G C38U, the self-cleavage came out at 1.62. The same measure for U5C U130C: 1.4. Consider G4U U52A, for which the self-cleavage was determined as 1.01. The same measure for U5C G114A: 0.96.

With U5A U45C, the self-cleavage stood at 1. The same measure for U5A U45G: 0.71. As for A6G A69U, the figure is 0.22; as for A6G A69G, 0.32. The same measure for A6G A107G: 0.74; for A6G U9A: 0.75; for G4U U81C: 0.2. For the variant U5C C90U, the self-cleavage was determined as 0.11. As for A6C A124U, the figure is 1.13. As for U5C C113A, the figure is 0.36; as for U5C C19U, 1. As for U5C C19A, the figure is 0.8; as for U5A C95U, 0.14. For U5G A64G, the self-cleavage turned out to be 0.23.

Regarding A6U A140G, the self-cleavage is 0.77. As for U5C C123U, the figure is 0.45. For A6U G127A, the self-cleavage was found to be 0.59. The same measure for U5G U112C: 0.51; for U5C U100C: 1.52; for G4C A141G: 0.5.

Regarding A6G C113U, the self-cleavage turned out to be 0.84.

In the case of A6G C113A, the self-cleavage was 1.18. The same measure for A6G U45C: 0.5; for A6G U45G: 0.97; for A6U U20A: 1.21. As for A6U U20C, the figure is 1.19; as for G4C U112A, 0.75; as for A6G U62C, 0.18. With A6G U62G, the self-cleavage amounted to 0.11. The same measure for A6U C63G: 0.19. As for U5C A78U, the figure is 1.9. Take U5A G53A: the self-cleavage came out at 0.79.

On to U5C U20C, for which the self-cleavage stood at 1.09. In the case of U5C U20A, the self-cleavage turned out to be 0.84.

Consider G4U A78G, for which the self-cleavage stood at 1.05.

With A6G G127A, the self-cleavage was 0.46. The same measure for U5C A124G: 1.15; for U5C A124C: 0.8. As for U5A A6U, the figure is 1.23; as for U5A A6G, 2.12; as for G7A A94U, 0. The same measure for G7A A94G: 0.14; for A6U G75U: 0.53; for U5C U14A: 0.86. With U5C U81G, the self-cleavage came to 1.31. As for U5C U81A, the figure is 1.56. For the variant U5C C95G, the self-cleavage turned out to be 0.17. The same measure for U5C C116A: 1.29; for A6U A65U: 0.33. As for A6U A65G, the figure is 0.26; as for A6U U87A, 0.15; as for A6U U87C, 0.16. Consider U5C U91C, for which the self-cleavage was 0.48.

As to U5C A67U, the self-cleavage was determined as 0.47.

As for U5C U104A, the self-cleavage came out at 1.28. The same measure for U5C A79G: 1.15. As for A6U A22G, the figure is 0.87. As for A6U A57U, the figure is 0.08; as for A6U A57G, 0; as for A6G G125A, 0.77. As for G4U A136G, the self-cleavage came out at 1.91. The same measure for A6G G32A: 0.68; for G4U A121U: 1.23. As for U5C A57C, the figure is 0.49. As for A6G G41U, the figure is 0.46; as for A6C A31U, 0; as for U5G A67U, 0.31. Consider G4C A79G, for which the self-cleavage came out at 0.29. For the variant A6C U119A, the self-cleavage turned out to be 1.36.

For G4U U134A, the self-cleavage amounted to 1.07. As for A6G U119A, the figure is 1.52; as for A6U A50G, 0.72; as for A6U U23C, 1.31. On to A6U U23A, for which the self-cleavage came to 0.26. The same measure for U5C G80A: 2.24; for U5C G32A: 1.06.

For the variant U5C C18G, the self-cleavage was determined as 0.99. As for G4U U109C, the figure is 1.07; as for U5A U29A, 1.16.

Take A6U U102C: the self-cleavage is 0.68.

In the case of A6G U29C, the self-cleavage stood at 0.74. As for G4A U108C, the figure is 1.04; as for A6U U96C, 0.09. As for A6G A92U, the figure is 1.23; as for A6G A92G, 0.22. The same measure for A6G A140U: 0.77; for A6G A140G: 0.69; for A6G G33A: 0.49. In the case of G4C U115C, the self-cleavage was found to be 2.15. As for G4U U39A, the figure is 1.95. On to A6G A67G, for which the self-cleavage stood at 0.39.

As for A6G A67U, the self-cleavage was found to be 0.68. The same measure for U5C U26G: 0.47. The same measure for A6U U52A: 1.

In the case of A6U U143G, the self-cleavage is 1.12. The same measure for U5A A57G: 0.83; for U5A A57U: 0.34; for A6G U81A: 1.47.

Take A6G C146U: the self-cleavage came out at 1.05. The same measure for U5C A140G: 1.12. For the variant A6G U52A, the self-cleavage is 0.43.

In the case of U5C A138C, the self-cleavage stood at 0.

In the case of A6G G25A, the self-cleavage worked out at 0.1.

As to A6G G25U, the self-cleavage came to 0.69. The same measure for U5C G55A: 0.5; for A6G U112A: 0.95. Consider A6G U112C, for which the self-cleavage was 0.96. On to U5C U73C, for which the self-cleavage came out at 1.16. Consider A6G A142G, for which the self-cleavage was found to be 1.01. The same measure for U5G A121G: 0.84; for U5A A142G: 0.89; for A6U U104A: 1.16. As for A6U U104G, the self-cleavage amounted to 0.48. As for G4A U130C, the figure is 1.38; as for U5C A107G, 1.13. With U5A A69G, the self-cleavage came out at 0.45. As for U5A A69U, the figure is 0.09. The same measure for U5A U62A: 0. As for U5C G33A, the figure is 1.45; as for A6G U108C, 0.79; as for U5C G105U, 1.32. As to U5C G105A, the self-cleavage is 1.16. The same measure for U5C U108C: 1.57. As for U5C U108G, the figure is 1.88; as for A6G A64G, 0.62; as for U5A A136G, 1.14. As for U5A A136U, the figure is 1.11; as for A6G A79G, 0.8; as for U5C U12G, 1.34. As to U5C U12C, the self-cleavage amounted to 0.86. As for U5A A65C, the figure is 0.08. The same measure for G7A A30G: 0.84. As for A6U U46C, the self-cleavage turned out to be 0.14. The same measure for U5A U9C: 0.81; for U5A A67G: 0.7. As for A6U U91C, the figure is 0.52; as for A6G U134G, 0.8; as for U5C G82A, 1.18. The same measure for U5A: 0.95; for U5G: 0.76.

On to U5C, for which the self-cleavage worked out at 1.06. As for A6C U45C, the figure is 1.18; as for G4C A107U, 1.49.

For A6G U26C, the self-cleavage was 0.9. On to U5A G49A, for which the self-cleavage was 0.5. The same measure for G4C A77G: 2.9; for U5C G36A: 0.4. As for A6G U87C, the figure is 0.15.
